Assay results reported in the supplement of paper PMC10567573.

B1: TRIM55 (parent)
chain: FQASNPYLPTRGGTTMASGGRFRC

Variants of: B1
Assay: protein stability index of a GFP-peptide fusion (GPS, HEK-293T) (PSI 1-6); higher = more stable
Settings: c terminus: a fixed tail appended
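Also: lentivirally expressed fusions sorted by FACS into six bins by GFP to DsRed ratio, PSI derived from sequencing read proportions per bin multiplied by bin number.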

Compared with FQASNPYLPTRGGTTMASGGRFNC [R23N], FQASNPYLPTRGGTTMASGGRFKC [R23K] is higher in protein stability index: 1.48 for the first, 2.1 for the second.

First: FQASNPYLPTRGGTTMASGGRFIC [R23I]
Second: FQASNPYLPTRGGTTMASGGRFGC [R23G]
The protein stability index of the first is higher: 1.62 for the first, 1.6 for the second.

First: FQASNPYLPTRGGTTMASGGRFFC [R23F]
Second: FQASNPYLPTRGGTTMASRGRFRC [G19R]
The protein stability index of the first is lower: 1.51 for the first, 1.9 for the second.

Going from FQASNPYLPTRGGTTMASDGRFRC [G19D] to FQASNPYLPTRGGTTMASWGRFRC [G19W], the protein stability index falls from 2.06 to 1.63.

Compared with FQASNPYLPTRGGTTMASYGRFRC [G19Y], FQASNPYLPTRGGTTMASCGRFRC [G19C] is higher in protein stability index: 2.06 for the first, 2.9 for the second.

Going from FQASNPYLPTRGGTTMASKGRFRC [G19K] to FQASNPYLPTRGGTTMASNGRFRC [G19N], the protein stability index falls from 2.39 to 1.77.

Compared with FQASNPYLPTRGGTTMASEGRFRC [G19E], FQASNPYLPTRGGTTMASAGRFRC [G19A] is lower in protein stability index: 1.71 for the first, 1.7 for the second.

Going from FQASNPYLPTRGGTTMASTGRFRC [G19T] to FQASNPYLPTRGGTTMASPGRFRC [G19P], the protein stability index falls from 2.28 to 1.83.

Compared with FQASNPYLPTRGGTTMASHGRFRC [G19H], FQASNPYLPTRGGTTMASIGRFRC [G19I] is lower in protein stability index: 2.48 for the first, 2.04 for the second.

Compared with FQASNPYLPTRGGTTMASSGRFRC [G19S], FQASNPYLPTRGGTTMASVGRFRC [G19V] is higher in protein stability index: 1.83 for the first, 2.07 for the second.

First: FQASNPYLPTRGGTTMASLGRFRC [G19L]
Second: FQASNPYLPTRGGTTMASQGRFRC [G19Q]
The protein stability index of the first is lower: 2 for the first, 2.06 for the second.

Compared with FQASNPYLPTRGGTTMASFGRFRC [G19F], FQASNPYLPTRGGTTMASMGRFRC [G19M] is lower in protein stability index: 1.91 for the first, 1.49 for the second.

Compared with FQASNPYLPTRGGTTMASGPRFRC [G20P], FQASNPYLPTRGGTTMASGQRFRC [G20Q] is lower in protein stability index: 2.19 for the first, 1.68 for the second.

Going from FQASNPYLPTRGGTTMASGTRFRC [G20T] to FQASNPYLPTRGGTTMASGSRFRC [G20S], the protein stability index falls from 1.71 to 1.34.

First: FQASNPYLPTRGGTTMASGDRFRC [G20D]
Second: FQASNPYLPTRGGTTMASGCRFRC [G20C]
The protein stability index of the first is higher: 1.72 for the first, 1.6 for the second.

Compared with FQASNPYLPTRGGTTMASGWRFRC [G20W], FQASNPYLPTRGGTTMASGNRFRC [G20N] is lower in protein stability index: 2.07 for the first, 1.72 for the second.

First: FQASNPYLPTRGGTTMASGKRFRC [G20K]
Second: FQASNPYLPTRGGTTMASGARFRC [G20A]
The protein stability index of the first is lower: 2.1 for the first, 2.62 for the second.

Going from FQASNPYLPTRGGTTMASGRRFRC [G20R] to FQASNPYLPTRGGTTMASGVRFRC [G20V], the protein stability index falls from 1.96 to 1.77.

First: FQASNPYLPTRGGTTMASGFRFRC [G20F]
Second: FQASNPYLPTRGGTTMASGIRFRC [G20I]
The protein stability index of the first is lower: 1.53 for the first, 1.73 for the second.

First: FQASNPYLPTRGGTTMASGLRFRC [G20L]
Second: FQASNPYLPTRGGTTMASGMRFRC [G20M]
The protein stability index of the first is lower: 2.24 for the first, 3.49 for the second.

Compared with FQASNPYLPTRGGTTMASGERFRC [G20E], FQASNPYLPTRGGTTMASGYRFRC [G20Y] is lower in protein stability index: 1.97 for the first, 1.63 for the second.

Going from FQASNPYLPTRGGTTMASGHRFRC [G20H] to FQASNPYLPTRGGTTMASGGRRRC [F22R], the protein stability index rises from 1.66 to 2.13.

Compared with FQASNPYLPTRGGTTMASGGRWRC [F22W], FQASNPYLPTRGGTTMASGGRCRC [F22C] is lower in protein stability index: 2.51 for the first, 2.18 for the second.

Compared with FQASNPYLPTRGGTTMASGGRARC [F22A], FQASNPYLPTRGGTTMASGGRYRC [F22Y] is higher in protein stability index: 1.42 for the first, 2.47 for the second.

Compared with FQASNPYLPTRGGTTMASGGRDRC [F22D], FQASNPYLPTRGGTTMASGGRSRC [F22S] is higher in protein stability index: 1.41 for the first, 1.75 for the second.

Going from FQASNPYLPTRGGTTMASGGRNRC [F22N] to FQASNPYLPTRGGTTMASGGRQRC [F22Q], the protein stability index rises from 2.14 to 3.22.

Compared with FQASNPYLPTRGGTTMASGGRMRC [F22M], FQASNPYLPTRGGTTMASGGRPRC [F22P] is higher in protein stability index: 2.25 for the first, 3.87 for the second.

Going from FQASNPYLPTRGGTTMASGGRHRC [F22H] to FQASNPYLPTRGGTTMASGGRIRC [F22I], the protein stability index falls from 2.29 to 1.57.

First: FQASNPYLPTRGGTTMASGGRERC [F22E]
Second: FQASNPYLPTRGGTTMASGGRVRC [F22V]
The protein stability index of the first is higher: 2.46 for the first, 1.38 for the second.

Going from FQASNPYLPTRGGTTMASGGRTRC [F22T] to FQASNPYLPTRGGTTMASGGRKRC [F22K], the protein stability index rises from 1.8 to 2.61.

Going from FQASNPYLPTRGGTTMASGGRGRC [F22G] to FQASNPYLPTRGGTTMATGGRFRC [S18T], the protein stability index rises from 1.43 to 2.23.

Going from FQASNPYLPTRGGTTMARGGRFRC [S18R] to FQASNPYLPTRGGTTMAQGGRFRC [S18Q], the protein stability index falls from 2.24 to 2.07.

Going from FQASNPYLPTRGGTTMANGGRFRC [S18N] to FQASNPYLPTRGGTTMADGGRFRC [S18D], the protein stability index falls from 2.19 to 2.09.

First: FQASNPYLPTRGGTTMAEGGRFRC [S18E]
Second: FQASNPYLPTRGGTTMAHGGRFRC [S18H]
The protein stability index of the first is higher: 2.22 for the first, 1.57 for the second.

Compared with FQASNPYLPTRGGTTMALGGRFRC [S18L], FQASNPYLPTRGGTTMAVGGRFRC [S18V] is lower in protein stability index: 2.45 for the first, 1.21 for the second.

Going from FQASNPYLPTRGGTTMAFGGRFRC [S18F] to FQASNPYLPTRGGTTMACGGRFRC [S18C], the protein stability index falls from 1.95 to 1.35.

First: FQASNPYLPTRGGTTMAYGGRFRC [S18Y]
Second: FQASNPYLPTRGGTTMAGGGRFRC [S18G]
The protein stability index of the first is lower: 2.22 for the first, 2.35 for the second.

Compared with FQASNPYLPTRGGTTMAKGGRFRC [S18K], FQASNPYLPTRGGTTMAPGGRFRC [S18P] is lower in protein stability index: 3.05 for the first, 1.79 for the second.

First: FQASNPYLPTRGGTTMAAGGRFRC [S18A]
Second: FQASNPYLPTRGGTTMAMGGRFRC [S18M]
The protein stability index of the first is lower: 1.97 for the first, 2.51 for the second.

Compared with FQASNPYLPTRGGTTMAIGGRFRC [S18I], FQASNPYLPTRGGTTLASGGRFRC [M16L] is higher in protein stability index: 1.48 for the first, 1.79 for the second.

Compared with FQASNPYLPTRGGTTVASGGRFRC [M16V], FQASNPYLPTRGGTTRASGGRFRC [M16R] is higher in protein stability index: 1.27 for the first, 1.86 for the second.

Going from FQASNPYLPTRGGTTYASGGRFRC [M16Y] to FQASNPYLPTRGGTTSASGGRFRC [M16S], the protein stability index rises from 1.98 to 2.67.

First: FQASNPYLPTRGGTTGASGGRFRC [M16G]
Second: FQASNPYLPTRGGTTKASGGRFRC [M16K]
The protein stability index of the first is lower: 2.5 for the first, 3.34 for the second.

Compared with FQASNPYLPTRGGTTPASGGRFRC [M16P], FQASNPYLPTRGGTTQASGGRFRC [M16Q] is lower in protein stability index: 2.92 for the first, 1.57 for the second.

Compared with FQASNPYLPTRGGTTWASGGRFRC [M16W], FQASNPYLPTRGGTTHASGGRFRC [M16H] is higher in protein stability index: 1.42 for the first, 1.69 for the second.

First: FQASNPYLPTRGGTTFASGGRFRC [M16F]
Second: FQASNPYLPTRGGTTIASGGRFRC [M16I]
The protein stability index of the first is lower: 1.76 for the first, 2.83 for the second.

First: FQASNPYLPTRGGTTTASGGRFRC [M16T]
Second: FQASNPYLPTRGGTTNASGGRFRC [M16N]
The protein stability index of the first is lower: 1.99 for the first, 2.02 for the second.
